Test results: paper PMC12416549 (2024)
Positions count from the first letter of the chain named. Numbers in names are those of the source.

Molecular target: T1, TNFR1 (Homo sapiens, UniProt P19438)
T1 chain: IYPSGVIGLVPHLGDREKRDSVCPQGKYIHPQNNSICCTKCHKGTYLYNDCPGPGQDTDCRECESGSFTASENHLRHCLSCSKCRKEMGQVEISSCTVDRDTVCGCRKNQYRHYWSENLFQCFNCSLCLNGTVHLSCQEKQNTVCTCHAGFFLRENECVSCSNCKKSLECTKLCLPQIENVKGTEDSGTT
Assay: yeast display SC50

B1: Y70C (designed binder)
chain: SMEEEVEKAAKEYEKKKKEAIEKHLEKLKAKDKEAAERFLKELEEAAKEYAKDEAKTMSEEEAKRRAKKCKEKVLLSELSEEEQKEIKEAEEKLVRTILKYVEEAAK
apparent Kd (screen): 7.78 nM

B2: T97N (designed binder)
chain: B1 chain with C70Y, T97N
apparent Kd (screen): 1.16 nM

B3: E104A (designed binder)
chain: B1 chain with C70Y, E104A
apparent Kd (screen): 0.79 nM

B4: V6H (designed binder)
chain: B1 chain with V6H, C70Y
apparent Kd (screen): 0.446 nM

B5: A10C (designed binder)
chain: B1 chain with A10C, C70Y
apparent Kd (screen): 1.05 nM

B6: K33P (designed binder)
chain: B1 chain with K33P, C70Y
apparent Kd (screen): 0.593 nM

B7: K64A (designed binder)
chain: B1 chain with K64A, C70Y
apparent Kd (screen): 0.956 nM

B8: R66G (designed binder)
chain: B1 chain with R66G, C70Y
apparent Kd (screen): 7.07 nM

B9: K11P (designed binder)
chain: B1 chain with K11P, C70Y
apparent Kd (screen): 18.3 nM

B10: E72T (designed binder)
chain: B1 chain with C70Y, E72T
apparent Kd (screen): 1.27 nM

B11: K15W (designed binder)
chain: B1 chain with K15W, C70Y
apparent Kd (screen): 1.16 nM

B12: K56P (designed binder)
chain: B1 chain with K56P, C70Y
apparent Kd (screen): 24.4 nM

B13: K11D (designed binder)
chain: B1 chain with K11D, C70Y
apparent Kd (screen): 0.446 nM

B14: R38V (designed binder)
chain: B1 chain with R38V, C70Y
apparent Kd (screen): 2.48 nM

B15: K31H (designed binder)
chain: B1 chain with K31H, C70Y
apparent Kd (screen): 0.446 nM

B16: K18E (designed binder)
chain: B1 chain with K18E, C70Y
apparent Kd (screen): 1.86 nM

B17: Y13E (designed binder)
chain: B1 chain with Y13E, C70Y
apparent Kd (screen): 1.54 nM

B18: A106E (designed binder)
chain: B1 chain with C70Y, A106E
apparent Kd (screen): 1.27 nM

B19: E44T (designed binder)
chain: B1 chain with E44T, C70Y
apparent Kd (screen): 0.956 nM

B20: V95Y (designed binder)
chain: B1 chain with C70Y, V95Y
apparent Kd (screen): 3 nM

B21: D53T (designed binder)
chain: B1 chain with D53T, C70Y
apparent Kd (screen): 2.73 nM

B22: K100F (designed binder)
chain: B1 chain with C70Y, K100F
apparent Kd (screen): 1.27 nM

B23: V6T (designed binder)
chain: B1 chain with V6T, C70Y
apparent Kd (screen): 0.49 nM

B24: E5K (designed binder)
chain: B1 chain with E5K, C70Y
apparent Kd (screen): 0.446 nM

B25: K88S (designed binder)
chain: B1 chain with C70Y, K88S
apparent Kd (screen): 0.49 nM

B26: K56C (designed binder)
chain: B1 chain with K56C, C70Y
apparent Kd (screen): 10.4 nM

B27: K64W (designed binder)
chain: B1 chain with K64W, C70Y
apparent Kd (screen): 0.446 nM

B28: E49W (designed binder)
chain: B1 chain with E49W, C70Y
apparent Kd (screen): 16.7 nM

B29: Y50R (designed binder)
chain: B1 chain with Y50R, C70Y
apparent Kd (screen): 2.25 nM

B30: A46M (designed binder)
chain: B1 chain with A46M, C70Y
apparent Kd (screen): 0.117 nM

B31: R96H (designed binder)
chain: B1 chain with C70Y, R96H
apparent Kd (screen): 2.48 nM

B32: E104Q (designed binder)
chain: B1 chain with C70Y, E104Q
apparent Kd (screen): 1.05 nM

B33: E103C (designed binder)
chain: B1 chain with C70Y, E103C
apparent Kd (screen): 7.78 nM

B34: E82Q (designed binder)
chain: B1 chain with C70Y, E82Q
apparent Kd (screen): 0.49 nM

B35: K73F (designed binder)
chain: B1 chain with C70Y, K73F
apparent Kd (screen): 15.2 nM

B36: I21S (designed binder)
chain: B1 chain with I21S, C70Y
apparent Kd (screen): 0.446 nM

B37: Y70F (designed binder)
chain: B1 chain with C70F
apparent Kd (screen): 12.5 nM

B38: E86R (designed binder)
chain: B1 chain with C70Y, E86R
apparent Kd (screen): 0.593 nM

B39: E103F (designed binder)
chain: B1 chain with C70Y, E103F
apparent Kd (screen): 1.05 nM

B40: M58C (designed binder)
chain: B1 chain with M58C, C70Y
apparent Kd (screen): 2.73 nM

B41: E89P (designed binder)
chain: B1 chain with C70Y, E89P
apparent Kd (screen): 10.4 nM

B42: S1P (designed binder)
chain: B1 chain with S1P, C70Y
apparent Kd (screen): 0.539 nM

B43: I21T (designed binder)
chain: B1 chain with I21T, C70Y
apparent Kd (screen): 0.49 nM
